According to PMC6954422:

Tests used:
[1] = target: MITF(wt) protein fragment 217–296 (Mus musculus); experiment: SEC
[2] = target: stammer-less MITF(Δ) protein fragment 217–296 (Mus musculus); experiment: SEC

stoichiometry N [1]	stoichiometry N [2]	Substance
2	–	MITF(wt) protein fragment 217–296 (domain or fragment)
–	2	stammer-less MITF(Δ) protein fragment 217–296 (domain or fragment)
